Source: patent publication US20220356230A1 (published 2022)
Where a chain is given by its changes, count along the chain named.

What was measured:
Assay in all cases: Luminex bead binding, antigen on microspheres, antibody supernatant
[1] = target: T1, MERS-CoV (SARS-CoV-2) Spike Protein (ECD, aa 1-1297, His Tag) (Sino 40069-[change]) (MERS-CoV, UniProt K9N5Q8 18-1297)
T1 sequence: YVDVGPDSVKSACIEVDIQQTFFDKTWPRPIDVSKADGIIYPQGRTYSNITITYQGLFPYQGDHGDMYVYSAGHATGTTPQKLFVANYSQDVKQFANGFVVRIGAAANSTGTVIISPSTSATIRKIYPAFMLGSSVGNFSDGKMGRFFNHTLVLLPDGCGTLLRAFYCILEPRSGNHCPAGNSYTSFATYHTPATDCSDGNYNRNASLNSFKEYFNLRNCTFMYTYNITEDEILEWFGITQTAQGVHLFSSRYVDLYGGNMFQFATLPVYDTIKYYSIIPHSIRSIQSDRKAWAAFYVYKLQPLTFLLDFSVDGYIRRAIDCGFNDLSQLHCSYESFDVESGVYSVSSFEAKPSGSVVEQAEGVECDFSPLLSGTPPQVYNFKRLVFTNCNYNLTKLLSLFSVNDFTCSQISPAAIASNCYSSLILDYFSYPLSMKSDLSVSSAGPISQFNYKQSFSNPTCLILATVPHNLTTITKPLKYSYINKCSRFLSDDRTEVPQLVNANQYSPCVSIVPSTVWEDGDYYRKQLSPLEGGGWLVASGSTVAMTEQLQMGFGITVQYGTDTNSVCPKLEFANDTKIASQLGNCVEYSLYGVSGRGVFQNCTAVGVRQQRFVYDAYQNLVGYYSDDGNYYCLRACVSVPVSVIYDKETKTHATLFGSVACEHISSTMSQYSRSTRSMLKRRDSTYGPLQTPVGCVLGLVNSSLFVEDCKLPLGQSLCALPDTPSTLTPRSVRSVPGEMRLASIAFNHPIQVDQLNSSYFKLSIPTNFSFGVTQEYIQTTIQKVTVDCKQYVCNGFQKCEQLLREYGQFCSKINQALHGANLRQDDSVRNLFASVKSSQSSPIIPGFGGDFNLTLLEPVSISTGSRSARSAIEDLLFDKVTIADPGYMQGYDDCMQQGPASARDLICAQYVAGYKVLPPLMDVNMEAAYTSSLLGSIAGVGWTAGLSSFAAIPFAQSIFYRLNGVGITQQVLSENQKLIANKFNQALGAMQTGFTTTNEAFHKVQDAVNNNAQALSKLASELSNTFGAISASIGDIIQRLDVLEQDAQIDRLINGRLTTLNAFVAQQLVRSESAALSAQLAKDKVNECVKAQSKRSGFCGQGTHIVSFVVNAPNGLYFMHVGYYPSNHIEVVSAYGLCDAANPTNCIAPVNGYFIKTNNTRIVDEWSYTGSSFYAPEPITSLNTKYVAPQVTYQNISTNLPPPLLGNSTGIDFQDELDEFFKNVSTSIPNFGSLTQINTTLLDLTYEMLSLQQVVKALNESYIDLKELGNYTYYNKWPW

[2] = target: T2, MERS-CoV (SARS-CoV-2) Spike Protein S2 (aa 726-1296, His Tag) (Sino 40070-[change]) (MERS-CoV, UniProt K9N5Q8 726-1296)
T2 sequence: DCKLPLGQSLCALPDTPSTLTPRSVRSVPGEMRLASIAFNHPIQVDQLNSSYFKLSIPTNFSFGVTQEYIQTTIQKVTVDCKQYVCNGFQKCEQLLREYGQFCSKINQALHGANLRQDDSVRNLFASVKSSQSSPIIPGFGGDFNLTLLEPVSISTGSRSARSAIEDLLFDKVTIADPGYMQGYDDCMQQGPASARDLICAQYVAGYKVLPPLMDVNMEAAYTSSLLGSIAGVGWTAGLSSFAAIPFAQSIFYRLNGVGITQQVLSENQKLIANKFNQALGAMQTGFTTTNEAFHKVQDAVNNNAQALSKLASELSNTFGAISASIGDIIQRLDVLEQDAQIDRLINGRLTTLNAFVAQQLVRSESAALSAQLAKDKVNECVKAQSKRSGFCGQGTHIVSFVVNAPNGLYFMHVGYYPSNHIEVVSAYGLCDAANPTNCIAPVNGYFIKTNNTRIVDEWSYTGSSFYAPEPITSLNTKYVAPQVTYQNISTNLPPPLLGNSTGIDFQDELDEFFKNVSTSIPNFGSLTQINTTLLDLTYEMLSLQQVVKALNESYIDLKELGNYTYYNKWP

[3] = target: Human SARS Coronavirus Spike S1 Subunit Protein (His Tag) (Sino 40150-V08B1) (Human SARS Coronavirus, UniProt P59594 14-667)

B1: mAb10987 (antibody, V domains shown)
VH: QVQLVESGGGVVQPGRSLRLSCAASGFTFSNYAMYWVRQAPGKGLEWVAVISYDGSNKYYADSVKGRFTISRDNSKNTLYLQMNSLRTEDTAVYYCASGSDYGDYLLVYWGQGTLVTVSS
VL: QSALTQPASVSGSPGQSITISCTGTSSDVGGYNYVSWYQQHPGKAPKLMIYDVSKRPSGVSNRFSGSKSGNTASLTISGLQSEDEADYYCNSLTSISTWVFGGGTKLTVLG
**Q.** B1 was tested. Which MFI [1] did it give?
**A.** 15 MFI

**Q.** What about the MFI [2] of the same binder?
**A.** 23 MFI

B2: mAb10970 (antibody, V domains shown)
VH: EVQLVESGGGLVQPGGSLRLSCAASGFTVSSNYMSWVRQAPGKGLEWVSVIYSGGSTYYADSVKGRFTISRDNSKNTLYLQMNRLRADDTAVYYCVRDPVGRYYYGMDVWGQGTTVTVSS
VL: not shown
**Q.** For B2, which MFI [1] is on record?
**A.** 14 MFI

**Q.** What about the MFI [2] of the same binder?
**A.** 16 MFI

B3: mAb10964 (antibody, V domains shown)
VH: QVQLQESGPGLVKPSETLSLTCTVSGGSINNYYWIWIRQPPGKGLEWIGYIYHSGSTNYNPSLKSRVTISVDTSKNQFSLKVSSVTAADTAVYYCANMVRGVYEDDYWGQGTLVTVSS
VL: DIQMTQSPSSLSASVGDRVTITCRASQSISNYLNWYQQKPGKAPKLLIFAASSLRSGVPSRFSGSGSGTDFTLTISSLHPEDFATYYCQQNYNTPLTFGPGTKVDIKR
**Q.** What does the source list for B3?
**A.** MFI [3]: 5190 MFI; MFI [1]: 15 MFI

B4: mAb10969 (antibody, V domains shown)
VH: QVQLVESGGGVVQPGRSLRLSCAASGFTFSSYAMHWVRQAPGKGLEWVAVISYDGSNKYYADSVKGRFTISRDNSKNTLYLQMNSLRAEDTAVYYCARDGRTITMVRGVIDDAFDIWGQGTMVTVSS
VL: not shown
**Q.** With B4 as the binder, how does the MFI [3] read?
**A.** 20 MFI

**Q.** And the MFI [1]?
**A.** 16 MFI

**Q.** What about the MFI [2] of the same binder?
**A.** 20 MFI

B5: mAb10955 (antibody, V domains shown)
VH: EVQLVESGGGLVQPGGSLRVSCAASGFTVSRNYMSWVRQAPGKGLEWVSVIYSGGSTFYADSVKGRFTISRDNSKNTLYLQMNSLRAEDTAIYYCARYIPRFDPWGQGTLVTVSS
VL: DIQMTQSPSSLSASVGDRVTITCQASQDISNYLNWFQQKPGRAPKLLIYDASNLETGVPSRFSGSGSGTDFTFTISSLQPEDIATYYCQQYDNLPITFGQGTRLEIKR
**Q.** What does the source list for B5?
**A.** MFI [3]: 14 MFI; MFI [1]: 15 MFI; MFI [2]: 18 MFI

B6: mAb10971 (antibody, V domains shown)
VH: EVQLVESGGGLIQPGGSLRLSCAASGVTVSSNYMSWVRQAPGKGLEWVSVIYSGGSTFYSDSVKGRFSISRDNSKNTLYLQMNSLRAEDTAVYYCARDLYYYGMDVWGQGTTVTVSS
VL: DIQLTQSPSFLSASVGDRVTITCRASQGISTYLAWYQQKPGKAPKLLIYAASTLQSGVPSRFSGSGSGTEFTLTISSLQPEDFATYYCQQLDSYPGLTFGGGTKVEIKR
**Q.** B6 was tested. Which MFI [3] did it give?
**A.** 20 MFI

**Q.** What about the MFI [1] of the same binder?
**A.** 15 MFI

**Q.** What about the MFI [2] of the same binder?
**A.** 13 MFI

B7: mAb10957 (antibody, V domains shown)
VH: B6 VH with I12V, S60A, S68T, Y79F, A87I, Y100G, Y101P
VL: B6 VL with T31S, E70Q, T72I, D92N, L97F, G101P, E106D
**Q.** For B7, which MFI [3] is on record?
**A.** 16 MFI

**Q.** And the MFI [1]?
**A.** 15 MFI

**Q.** And the MFI [2]?
**A.** 18 MFI

B8: mAb10956 (antibody, V domains shown)
VH: B6 VH with I12V, V27L, S60A, S68T, Y100I, Y101K
VL: not shown
**Q.** What does the source list for B8?
**A.** MFI [3]: 16 MFI; MFI [1]: 15 MFI; MFI [2]: 16 MFI

B9: mAb10966 (antibody, V domains shown)
VH: EVQLVESGGGLVQPGGSLRLSCAASGLTVSSNYMSWVRQAPGKGLEWVSVIYSGGSTFYADSVKGRFTISRDNSKNTLYLQMNSLRPEDTAVYYCAREGRIAATGYGMDVWGQGTTVTVSS
VL: not shown
**Q.** How did the MFI [3] turn out when B9 was run?
**A.** 20 MFI

**Q.** What about the MFI [1] of the same binder?
**A.** 16 MFI

**Q.** And the MFI [2]?
**A.** 16 MFI
